Assay results from patent US20260042859A1 (Stanford University, published 2026).
Changes are numbered by the printed parent chain. In names and notes the source's numbering stands.

B1: N-terminus FLAG-tagged mutant SMAGP^T7A,T17A expressed on Ramos cells (other, UniProt Q0VAQ4 1-97, looked up)
chain: MTSLLTAPSPREELMTAPILQPTEALSPEDGASTALIAVVITVVFLTLLSVVILIFFYLYKNKGSYVTYEPTEGEPSAIVQMESDLAKGSEKEEYFI
notes: whole, on cells; Double glycosylation-site mutant; also called T7A and T17A double mutations on SMAGP; not shown: N-terminal FLAG tag
B2: N-terminus FLAG-tagged mutant SMAGP^T6A,T7A expressed on Ramos cells (other, UniProt Q0VAQ4 1-97, looked up)
chain: B1 chain with T6A, A17T
notes: whole, on cells; Double glycosylation-site mutant; not shown: N-terminal FLAG tag
B3: N-terminus FLAG-tagged mutant SMAGP^T7A,S9A expressed on Ramos cells (other, UniProt Q0VAQ4 1-97, looked up)
chain: B1 chain with S9A, A17T
notes: as for B2

biological target: T1, human recombinant PILRa-Fc protein (human, UniProt Q9UKJ1 20-196, limits assumed); assay: flow cytometry, PILRa-Fc on Ramos cells expressing FLAG-SMAGP mutant, anti-human-IgG-PE secondary
T1 construct: Recombinant protein; also called human PILRa-Fc; not shown: Fc part
T1 sequence (Q9UKJ1 20-196 limits assumed): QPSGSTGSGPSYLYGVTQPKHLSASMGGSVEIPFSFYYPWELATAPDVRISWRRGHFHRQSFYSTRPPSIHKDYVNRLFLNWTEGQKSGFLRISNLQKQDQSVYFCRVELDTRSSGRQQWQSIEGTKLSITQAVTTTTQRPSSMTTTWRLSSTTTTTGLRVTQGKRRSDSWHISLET

Binding result, no binding:
B1, B2, B3
